Assays:
Porcine Kidney CD10 [1] = assay: Hydrolysis by purified CD10; format: biochemical; settings: release of Leu-pNA vs Leu-Dox, 37° C., pH 7.4
Ramos cells (CD10pos) = assay: cells; settings: ratio of IC50
Experimental: (§1) Suspension cells, BALL-1, Ramos and Namalwa cells were cultured in RPMI media containing 10% heat inactivated fetal calf serum (FCS). On the day of the study, the cells were collected, washed and resuspended at a concentration of 0.5×10^6 cells/ml in RPMI containing 10% FCS. 100 µl of cell suspension was added to 96 well plates. […] Finally 10 μl of a 100 μCi/ml ^3H-thymidine was added per well and the plates were incubated for 24 hours. The plates were harvested using a 96 well Harvester (Packard Instruments) and counted on a Packard Top Count counter. Four parameter logistic curves were fitted to the ^3H-thymidine incorporation as a function of drug molarity using Prism software to determine IC50 values.
(§2) The effect of two known inhibitors of CD10 on prodrug activity in Ramos, LNCaP and Ball-1 cells was evaluated. The IC50 of Suc-βAla-Ile-Ala-Leu-Dox was determined in the presence of increasing concentration of the CD10 inhibitors, phosphoramidon and thiorphan.

Porcine Kidney CD10 [2] = assay: Hydrolysis by purified CD10; format: biochemical
Experimental: Reaction products were analyzed by HPLC with fluorescence detection. Rates were essentially linear over the incubation period. The observed product was Leu-doxorubicin.

Namalwa cells (CD10pos) = assay: cells; format: cell-based; settings: ratio of IC50
Experimental: as §1

[3] = mouse, in vivo, iv, 100 umol/kg
Experimental: (§4) Plasma was obtained from three individual animals in each group at 5 minutes, 1, 2, 4, or 6 hr.

[4] = mouse, in vivo, iv, 100 umol/kg; remark: listed apart in the source
Experimental: as §4

[5] = Pharmacokinetic/metabolism study, single IV bolus; settings: mice
Experimental: as §4

[6] = tested on: LNCaP (prostate carcinoma) cells; settings: ratio of IC50
Experimental: (§3) Adherent cells, LNCaP (prostate carcinoma), HT-29 (colon carcinoma) and PC-3 (prostate carcinoma), were cultured in DMEM media containing 10% heat inactivated fetal calf serum (FCS). On the day of the study the cells were detached from the plate with a trypsin solution. The collected cells were washed and resuspended at a concentration of 0.25×10^6 cells/ml in DMEM containing 10% FCS. 100 μl of cell suspension were added to 96 well plates and the plates were incubated for 3 hours to allow the cells to adhere. […] The plates were then incubated for 24 hours, pulsed with 10 μl of a 100 μCi/ml ^3H-thymidine and incubated for an additional 24 hours (total incubation time 48 hours). The plates were harvested using a 96 well Harvester (Packard Instruments) and counted on a Packard Top Count Counter. Four parameter logistic curves were fitted to the ^3H-thymidine incorporation as a function of drug molarity using Prism software to determine IC50 values.
as §3, with “carcinoma), PC-3 (prostate” for “carcinoma), HT-29 (colon”, “and 22 RV1” for “and PC-3”, “with 1:0” for “with 10”
as §2

LNCaP xenografts = assay: LNCaP xenograft in SCID mice, Q6DX2, equitoxic comparison (Example 27); format: in vivo, C.B-17.SCID mice
Experimental: All compounds except Suc-βAla-Leu-Ala-Leu-Dox (three levels) were dosed at two levels with the goal to get a dose response for all compounds.
Knowing that the LNCaP tumor bearing nude mice have weight loss, we chose very conservative dose levels for each compound estimated to be well-tolerated equitoxic doses based on earlier studies and SD-MTD results. The high dose level for repeat dosing is usually 80% of their SD-MTD, and the low dose level is 80% of the high dose level. Accordingly, groups of ten male CD17.SCID mice, subcutaneously injected with 2.5 million LNCaP cells, were treated intravenously with the compounds at the levels described in Table 22 at six day intervals for a total of two identical doses (Q6DX2).
LNCaP tumors grew well in SCID mice, but the SCID mice with LNCaP tumor xenografts experienced severe weight loss, as 80% of control mice had more than 25% of weight loss by the end of the study. Nevertheless, the efficacy of different treatments at approximately equitoxic levels were compared based on the time it took for 50% of mice to reach toxic weight loss and the total numbers of mice with toxic weight loss at the end of study.

[7] = Second single dose Maximum Tolerated Dose (SD-MTD) study, 49 days; settings: mouse, in vivo
Experimental: In a second single dose Maximum Tolerated Dose (SD-MTD) study, groups of five normal ICR mice were administered intravenous bolus doses of Suc-βAla-Leu-Ala-Leu-Dox. The mice were observed daily for 49 days and body weights measured twice weekly.
In a second single dose Maximum Tolerated Dose (SD-MTD) study, groups of five normal ICR mice were administered intravenous bolus doses of Suc-Leu-Ala-Leu-Dox. The mice were observed daily for 49 days and body weights measured twice weekly.
In a second single dose Maximum Tolerated Dose (SD-MTD) study, groups of five normal ICR mice were administered intravenously bolus doses of Suc-Ile-Ala-Leu-Dox. The mice were observed daily for 49 days and body weights measured twice weekly.
In a second single dose Maximum Tolerated Dose (SD-MTD) study, groups of five normal ICR mice were administered intravenous bolus doses of Suc-βAla-Ile-Ala-Leu-Dox. The mice were observed daily for 49 days and body weights measured twice weekly.

## Suc-βAla-Leu-Ala-Leu-pNA
Porcine Kidney CD10 [1]
  rate of cleavage relative to Suc-βAla-Leu-Ala-Leu-Dox: 590 times

## COc1cccc2c1C(=O)c1c(O)c3c(c(O)c1C2=O)C[C@@](O)(C(=O)CO)C[C@@H]3O[C@H]1C[C@H](NC(=O)[C@H](CC(C)C)NC(=O)[C@H](C)NC(=O)[C@H](CC(C)C)NC(=O)CCC(=O)O)[C@H](O)[C@H](C)O1 [Suc-Leu-Ala-Leu-Dox]
Ramos cells (CD10pos)
  Ratio Ball-1:Ramos: ~30
Porcine Kidney CD10 [2]; 12.5 μg/mL, 37° C., pH 7.4, product Leu-doxorubicin
  % hydrolysis/10 hr: 8.3 % hydrolysis/10 hr
Porcine Kidney CD10 [2]; standard Suc-βAla-Leu-Ala-Leu-Dox
  Fraction hydrolyzed relative to standard: 0.75
Namalwa cells (CD10pos)
  Ratio Ball-1:Namalwa: ~35
[3]
  AUC(0-t): 634 µM·h
[4]
  Plasma AUC0-6 hr of AL-Dox or AG-Dox*: 1.6 µM·h
  Plasma AUC0-6 hr of L-Dox or G-Dox*: 5.1 µM·h
[5]
  Major Plasma Metabolite: Leu-Dox
[6]
  Ratio PC-3:LNCaP: 50
LNCaP xenografts; 58.3 mg/kg Q6DX2
  Time: 50% Weight Loss: 33 days
  Time: 100% Weight Loss: 61 days
LNCaP xenografts; 70.5 mg/kg Q6DX2
  Time: 50% Weight Loss: 26 days
  Time: 100% Weight Loss: 47 days
[7]
  MTD: 42 mg/kg
[7]; iv
  MTD: 71 mg/kg

Reference: patent US20050267016A1, “CD-10 activated prodrug compounds” (priority 2001, published 2005)
